Results reported in patent US20140120555A1 (PIERRE FABRE MEDICAMENT, published 2014).
Changes are numbered by the printed parent chain. Names and notes keep the numbering of the source. One block for each binder: values may come before it.

What was measured:
[1] = target: T1, Recombinant human FcγRI [CD64], Gln16-Pro288 with C-terminal 6-His tag (human, UniProt P12314 16-288); experiment: SPR (Biacore X): h-FcγRI injected over c515H7 Mab immobilized on a CM4 sensorchip; heterogeneous ligand model, minor component (0%)
T1 construct: range 16-288; Soluble form bought from R&D Systems; also called h-FcγRI
T1 sequence (P12314 other isoform, or with tags, fused parts or gaps limits assumed): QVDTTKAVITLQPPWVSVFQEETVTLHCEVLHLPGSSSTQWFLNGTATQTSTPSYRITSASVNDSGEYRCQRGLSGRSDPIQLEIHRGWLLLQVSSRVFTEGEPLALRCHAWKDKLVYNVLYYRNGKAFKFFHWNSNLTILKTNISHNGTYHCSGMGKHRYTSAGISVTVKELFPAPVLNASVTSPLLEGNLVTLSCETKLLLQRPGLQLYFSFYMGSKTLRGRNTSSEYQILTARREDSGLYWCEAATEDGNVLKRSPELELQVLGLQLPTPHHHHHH
Method: (§1) 2017 RU of c515H7 Mab were immobilized using the amine coupling kit chemistry on the second flowcell (FC2) of a CM4 sensorchip. The first flowcell (FC1) activated by NHS and EDC mixture and des-activated by ethanolamine served as the reference surface to check and subtract the non specific interaction between the analyte (Fc gamma receptors) and the sensorchip matrix.
(§2) The kinetic experiments were carried out at 25° Celsius at a flow rate of 30 μl/min. The HBS-EP buffer was used either as the running buffer or for the preparation of analyte solutions. The analyte solutions were injected during 90 seconds (association phase) with a 90 seconds delay (dissociation phase). An injection of running buffer as analyte was used as a double reference. All the sensorgrams were corrected by this double reference sensorgram.
(§3) After each injection of the analyte, the sensorchip was regenerated by injection of 20 mM NaOH, 75 mM NaCl solution.

[2] = target: T2, Recombinant mouse FcγRI [CD64], Gln25-Pro297 with C-terminal 6-His tag (mouse, UniProt P26151 25-297); experiment: SPR (Biacore X): m-FcγRI injected over c515H7 Mab immobilized on a CM4 sensorchip; heterogeneous ligand model, minor component (19%)
T2 construct: range 25-297; Soluble form bought from R&D Systems; also called m-FcγRI
T2 sequence: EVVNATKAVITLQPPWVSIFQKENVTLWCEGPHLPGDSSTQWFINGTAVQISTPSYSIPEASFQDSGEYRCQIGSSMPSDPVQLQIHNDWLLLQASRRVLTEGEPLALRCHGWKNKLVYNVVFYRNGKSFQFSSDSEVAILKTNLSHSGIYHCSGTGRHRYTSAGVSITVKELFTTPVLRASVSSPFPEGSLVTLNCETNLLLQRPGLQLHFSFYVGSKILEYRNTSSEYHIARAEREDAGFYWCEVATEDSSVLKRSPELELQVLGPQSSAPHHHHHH
Method: as §1, §2, §3

[3] = target: T1, Recombinant human FcγRI [CD64], …; experiment: SPR (Biacore X): h-FcγRI injected over c515H7 Mab immobilized on a CM4 sensorchip; heterogeneous ligand model, major component (100%)
Method: as §1, §2, §3

[4] = target: T3, Recombinant mouse FcγRIII [CD16], Ala31-Thr215 with C-terminal 10-His tag (mouse, UniProt P08508 31-215); experiment: SPR (Biacore X): m-FcγRIII injected over c515H7 Mab immobilized on a CM4 sensorchip; heterogeneous ligand model, minor component (1%)
T3 construct: Soluble form bought from R&D Systems; also called m-FcγRIII
T3 sequence: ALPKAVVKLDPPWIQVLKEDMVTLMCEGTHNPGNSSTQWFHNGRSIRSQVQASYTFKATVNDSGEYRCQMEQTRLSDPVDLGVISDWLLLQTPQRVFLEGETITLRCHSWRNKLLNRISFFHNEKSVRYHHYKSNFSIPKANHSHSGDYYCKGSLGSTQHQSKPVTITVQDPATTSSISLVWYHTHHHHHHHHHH
Method: as §1, §2, §3

[5] = target: T4, Recombinant human FcγRIIIA variant V [CD16a], Gln17-Gln208 with C-terminal 6-His tag (human, UniProt P08637 17-208); experiment: SPR (Biacore X): h-FcγRIIIA injected over c515H7 Mab immobilized on a CM4 sensorchip; heterogeneous ligand model, minor component (19%)
T4 construct: range 17-208; 'variant V' is given without a position, so no substitution is written; also called h-FcγRIIIA
T4 sequence (P08637 other isoform, or with tags, fused parts or gaps mutant limits assumed, form in doubt): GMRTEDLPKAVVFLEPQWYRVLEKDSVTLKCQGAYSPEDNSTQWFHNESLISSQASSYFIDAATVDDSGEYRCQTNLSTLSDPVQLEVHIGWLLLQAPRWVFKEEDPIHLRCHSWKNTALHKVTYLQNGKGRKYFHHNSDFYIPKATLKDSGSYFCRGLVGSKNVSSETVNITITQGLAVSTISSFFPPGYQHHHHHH
Method: as §1, §2, §3

[6] = target: T1, Recombinant human FcγRI [CD64], …; experiment: SPR (Biacore X): h-FcγRI injected over hz515H7VH1D76NVL2 Mab immobilized on a CM4 sensorchip; Langmuir model
Method: The experiments were carried out using a Biacore X device. The soluble forms of the four Fc […]gamma receptors used in this study were purchased from R&D Systems: […]

[7] = target: T3, Recombinant mouse FcγRIII [CD16], …; experiment: SPR (Biacore X): m-FcγRIII injected over hz515H7VH1D76NVL2 Mab immobilized on a CM4 sensorchip; heterogeneous ligand model, major component (66%)
[8] = target: T4, Recombinant human FcγRIIIA variant V …; experiment: SPR (Biacore X): h-FcγRIIIA injected over hz515H7VH1D76NVL2 Mab immobilized on a CM4 sensorchip; heterogeneous ligand model, major component (79%)
Method: as §1, with “1964” for “2017”, “hz515H7VH1D76NVL2” for “c515H7”
as §2
Sensorgrams obtained with h-FcγRIIIA [FIG. 16] were clearly not fitted by the Langmuïr model (Chi2/Rmax>20%). […] According to this model, the hz515H7VH1D76NVL2 Mab Fc domain may be regarded as a mixture of two components. […] According to the literature, the heterogeneity observed with h-FcγRIIIA was probably linked to the glycosylation heterogeneity on the Mab Fc domain.

Kd [1]: 0.06 nM
koff [1]: 7.3e-05 s⁻¹
kon [1]: 1.14e+06 M⁻¹ s⁻¹
Kd [2]: 34.6 nM
koff [2]: 0.0387 s⁻¹
kon [2]: 1.12e+06 M⁻¹ s⁻¹
Kd [3]: 1.22 nM
koff [3]: 0.000599 s⁻¹
kon [3]: 493000 M⁻¹ s⁻¹
Kd [4]: 67 nM
koff [4]: 0.0024 s⁻¹
kon [4]: 40000 M⁻¹ s⁻¹
Kd [5]: 34.7 nM
koff [5]: 0.0124 s⁻¹
kon [5]: 357000 M⁻¹ s⁻¹
B1: chimeric antibody c515H7 (antibody, human IgG1, kappa)
heavy: not shown
light: DIVMSQSPSSLAVSAGEKVTMSCKSSQSLFNSRTRKNYLAWYQQKPGQSPKLLIYWASARDSGVPARFTGSGSETYFTLTISRVQAEDLAVYYCMQSFNLRTFGGGTKLEIKRTVAAPSVFIFPPSDEQLKSGTASVVCLLNNFYPREAKVQWKVDNALQSGNSQESVTEQDSKDSTYSLSSTLTLSKADYEKHKVYACEVTHQGLSSPVTKSFNRGEC
notes: Human IgG1/kappa constant domains; also called c515H7 Mab; chimeric 515H7

Kd [6]: 0.93 nM
koff [6]: 0.00054 s⁻¹
kon [6]: 578000 M⁻¹ s⁻¹
Kd [7]: 0.2 nM
koff [7]: 3.7e-05 s⁻¹
kon [7]: 178000 M⁻¹ s⁻¹
Kd [8]: 325 nM
koff [8]: 0.187 s⁻¹
kon [8]: 575000 M⁻¹ s⁻¹
B2: humanized antibody Hz515H7 VH1 D76N VL2 (antibody, human IgG1, kappa)
heavy: not shown
light: B1 light with S5T, A15L, K18R, V19A, G105Q, L109V
notes: IgG1/kappa; also called hz515H7VL2; hz515H7-1
